Tests used:
[1] = biological target: Recombinant human p18 (His-p18)

Question: Which “levels of ubiquitinated p18 after Ube3a siRNA KD (His-ubiquitin pull-down assay)” value (Flag-p18) does the source give for endogenous Ube3a of COS-1 cells here?
Answer: The value was 100.0±1.8 vs. 66.8±3.7.

B1: His6-E6AP (protein)
chain: MEKLHQCYWKSGEPQSDDIEASRMKRAAAKHLIERYYHQLTEGCGNEACTNEFCASCPTFLRMDNNAAAIKALELYKINAKLCDPHPSKKGASSAYLENSKGAPNNSCSEIKMNKKGARIDFKDVTYLTEEKVYEILELCREREDYSPLIRVIGRVFSSAEALVQSFRKVKQHTKEELKSLQAKDEDKDEDEKEKAACSAAAMEEDSEASSSRIGDSSQGDNNLQKLGPDDVSVDIDAIRRVYTRLLSNEKIETAFLNALVYLSPNVECDLTYHNVYSRDPNYLNLFIIVMENRNLHSPEYLEMALPLFCKAMSKLPLAAQGKLIRLWSKYNADQIRRMMETFQQLITYKVISNEFNSRNLVNDDDAIVAASKCLKMVYYANVVGGEVDTNHNEEDDEEPIPESSELTLQELLGEERRNKKGPRVDPLETELGVKTLDCRKPLIPFEEFINEPLNEVLEMDKDYTFFKVETENKFSFMTCPFILNAVTKNLGLYYDNRIRMYSERRITVLYSLVQGQQLNPYLRLKVRRDHIIDDALVRLEMIAMENPADLKKQLYVEFEGEQGVDEGGVSKEFFQLVVEEIFNPDIGMFTYDESTKLFWFNPSSFETEGQFTLIGIVLGLAIYNNCILDVHFPMVVYRKLMGKKGTFRDLGDSHPVLYQSLKDLLEYEGNVEDDMMITFQISQTDLFGNPMMYDLKENGDKIPITNENRKEFVNLYSDYILNKSVEKQFKAFRRGFHMVTNESPLKYLFRPEEIELLICGSRNLDFQALEETTEYDGGYTRDSVLIREFWEIVHSFTDEQKRLFLQFTTGTDRAPVGGLGKLKMIIAKNGPDTERLPTSHTCFNVLLLPEYSSKEKLKERLLKAITYAKGFGML
Question: B1 was tested. Which “in vitro ubiquitination of p18 (Western blot)” value [1] did it give?
Answer: Its value is “p18 ubiquitination was only observed in the presence of Ube3a, ubiquitin, E1, E2, and ATP”.
